Assay results published in patent US20060134801A1, “Methods and compositions involving MDA-7” (Board of Regents, The University of Texas System, priority 2003, published 2006).

How the values were obtained:
[1] = test system: bFGF-induced angiogenesis; experiment: In vivo Matrigel plug angiogenesis assay; parameters: species or system athymic nude mice; conditions: 12.5 ng in Matrigel with 60 ng bFGF; 10 days
Description: To determine the antiangiogenic activity of sMDA-7, an in vivo angiogenesis assay was performed. Briefly, sMDA-7 (12.5 ng) and bFGF (60 ng) was mixed with 500 μl of Matrigel (Beckton Dickinson, Bedford, Mass.) on ice and injected subcutaneously into athymic nude mice. Animals receiving Matrigel containing only bFGF (60 ng) served as positive controls and animals receiving Matrigel containing no growth factor served as negative controls. Each group comprised of five animals and the experiments were performed twice. Animals were sacrificed 10 days after injection. The Matrigel plugs were recovered, photographed, and subjected to hemoglobin analysis as previously described (Pessaniti et al., 1992).

melanoma cell lines = experiment: Trypan blue viability, melanoma cell lines (panel); type: cell-based, human
Source text: (§1) rhMDA-7 (IL-24) protein was purified from 293-mda7 cells using affinity chromatography. Various lots of protein ranged from 30% ->80% purity based upon silver stain. The rhMDA-7 protein was applied to melanoma cell lines, and cells assessed for viability using the Trypan blue assay. […] Treatment of melanoma cells with rhMDA-7 results in rapid activation (via phosphorylation) of STAT3. The cytotoxicity observed in melanoma cells is inhibited by anti-MDA-7 antibodies.
(§2) The mechanism of the anti-tumor activity of rhMDA-7 was also evaluated. Melanoma cells were treated with rhMDA-7 protein and assessed for apoptosis using the TUNEL assay. […] These studies were performed with purified rhMDA-7 protein. The melanoma cells have also been treated with supernatant from 293-mda7 cells or control 293 cells. Only the 293-mda7 supernatant causes cell killing.

HUVEC = experiment: IP-10 and IFN-γ production by ELISA; type: cell-based, human; conditions: 10 ng/ml; 48 h period
Description: Furthermore, IFN-γ is a potent inducer of IP-10 (Majumder et al., 1998). […] Studies were conducted to determine whether the antiangiogenic activity of sMDA-7 was mediated by IFN-γ or IP-10. HUVEC were seeded in 6-well plates (1×10^5/well) and treated with sMDA-7 (10 ng/ml). Cell culture supernatant was collected at 6 h, 24 h, and 48 h after treatment, centrifuged at 1200 rpm, and analyzed for IP-10 and IFN-γ protein production using commercially available ELISA kits. Assays were performed as recommended by the manufacturer (R&D systems, Minneapolis, Minn.). […] Cells treated with PBS served as negative controls in these experiments. Samples were analyzed in quadruplicate, and data represented as the average value for each concentration of sMDA-7 tested.

[2] = test system: A549 cells and CCD16 cells; experiment: Clonogenic survival with MDA-7 conditioned medium and radiation; type: cell-based, human; conditions: 10 ng/ml
Description: FIG. 60. Clonogenic survival of A549 cells (A) and CCD16 cells (B). Cells were serum starved for 12 hours and treated with conditioned medium containing mda7 protein (10 ng/ml). Twelve hours later, cells were irradiated, harvested and plated in regular medium. After incubation for 14 days, colonies were counted and survival.
Twelve hours after seeding HUVECs in 4-well plates (Nunc, Roskilde, Denmark), medium was replaced with serum/growth factor-free medium. After serum/growth factor starvation for 12 hours, cells were treated with complete medium containing either MDA-7 protein (10 ng/ml) (removed from cultures of 293 cells), angiostatin (100 ng/ml), or endostatin (100 ng/ml). Twelve hours later, cells were irradiated with ^137CS unit (3.4 Gy/min) at room temperature, trypsinized and counted. Known numbers of cells were replated in 60 mm culture dishes and incubated to allow macroscopic colony development. Colonies were counted after 14 days, and the percent plating efficiency and surviving fractions following given treatments were calculated based on the survival of non-irradiated cells.

A375 = experiment: Trypan blue viability; type: cell-based, human; conditions: 40 ng/ml, 3 days
Source text: as §1, §2

SK-Mel-1 = experiment: Trypan blue viability; type: cell-based, human; conditions: 40 ng/ml, 3 days
Source text: as §1, §2

WM35 = experiment: Trypan blue viability; type: cell-based, human; conditions: 40 ng/ml, 3 days
Source text: as §1, §2

A375.S2 = experiment: Trypan blue viability; type: cell-based, human; conditions: 40 ng/ml, 3 days
Source text: as §1, §2

WM793 = experiment: Trypan blue viability; type: cell-based, human; conditions: 40 ng/ml, 3 days
Source text: as §1, §2

MeWo = experiment: Trypan blue viability; type: cell-based, human; conditions: 40 ng/ml, 3 days
Source text: as §1, §2

[3] = test system: MiaPaCa2 pancreatic cancer cells; experiment: MDA-7 protein on pancreatic cancer cells: STAT3 activation, killing; type: cell-based, human
Description: MiaPaCa2 pancreatic cancer cells were treated with purified recombinant human MDA-7 protein, as described in Example 11. By immunofluorescence, substantial activation (phosphorylation) of STAT3 and concomitant movement of p-STAT3 to the nucleus were observed. The STAT3 activation was blocked in the presence of anti-MDA-7 antibodies.

PAC1 SMC = experiment: Cell death after recombinant MDA-7; type: cell-based, rat
Description: Cell viability was determined using the Trypan-blue exclusion assay. Briefly, total cells (suspension+trypsinized) were mixed 1:1 with Trypan blue solution (Gibco-BRL) and then observed under a hemocytometer via light microscopy. The percent of blue cells (dead cells) were counted (an average count of 3-5 fields were made).
Cells are plated in chamber slides and treated with MDA-7 protein for 60 minutes and then washed thoroughly with PBS (3×). The cells are then fixed with methanol:acetic acid (95:5 vol:vol) and stained with anti-pStat3 monoclonal antibody (1:1000 dilution; Cell Signalling) for 1 h at 4° C. The cells are then washed 3× with PBS and treated with secondary antibody (1:1000 dilution; Texas Red-conjugated-Rabbit anti mouse IgG; Sigma) for 1 h at 4° C. The cells are then washed and examined under fluorescence microscopy.

A549 and H1299 = experiment: Effect of secreted MDA-7 protein on lung cancer cells; type: cell-based, human
Description: The number of apoptotic cells was measured by propidium iodide staining and FACS analysis. Cells were harvested, pelleted by centrifugation and resuspended in phosphate-buffered saline containing 50 μg/ml propidium iodide, 0.1% Triton X-100, and 0.1% sodium citrate. Samples were stored at 4° C. for 1-3 hours and vortexed prior to FACS analysis (Becton-Dickenson FACScan, Mountain View, Calif.; FL-3 channel).

B1: sMDA-7: soluble secreted human MDA-7 (IL-24) protein purified from stably transfected 293-mda-7 cells (protein)
chain: AQGQEFHFGPCQVKGVVPQKLWEAFWAVKDTMQAQDNITSARLLQQEVLQNVSDAESCYLVHTLLEFYLKTVFKNYHNRTVEVRTLKSFSTLANNFVLIVSQLQPSQENEMFSIRDSAHRRFLLFRRAFKQLDVEAALTKALGEVDILLTWMQKFYKL
- bFGF-induced angiogenesis (hemoglobin) [1]: significantly inhibited
- death in melanoma cells (melanoma cell lines; 0-20 ng/ml, 4 days): dose-dependent death
- melanoma lines showing cytotoxicity (melanoma cell lines; 40 ng/ml for 3 days): 5 of 6
- induced secretion of IFN-γ (HUVEC): < 30 pg/mL
- induced secretion of IP-10 (HUVEC): < 32 pg/mL
- radiosensitizing effects [2]: does not produce radiosensitizing effects
- % Dead (A375): 26.6%
- % Dead (SK-Mel-1): 5.2%
- % Dead (WM35): 17.6%
- % Dead (A375.S2): 22.2%
- % Dead (WM793): 5.2%
- % Dead (MeWo): 20%
- killing of MiaPaCa2 cells [3]: dose-dependent killing
- time to evident STAT3 activation [3]: ≤ 30 min
- cell death (PAC1 SMC): No statistically significant increase in cell death
- cell growth inhibition or cell death (A549 and H1299): did not induce cell growth inhibition or cell death
